Source: patent US9486491 (dated 2016)
Non-standard residues stand in square brackets, D forms with d. No end group written: not given here. Hyp = O=C(O)[C@@H]1C[C@@H](O)CN1

B1: GlyProIleGlyProVal (peptide)
chain: GPIGPV
B2: IleHypGly (peptide)
chain: Ile-[Hyp]-Gly
B3: AlaHypGly (peptide)
chain: Ala-[Hyp]-Gly
B4: GlyProSer (peptide)
chain: GPS
B5: GlyProVal (peptide)
chain: GPV
B6: LeuHypGly (peptide)
chain: Leu-[Hyp]-Gly
B7: LeuHypGlyProAla (peptide)
chain: L[Hyp]GPA
B8: GlyProAla (peptide)
chain: GPA
B9: AlaProGly (peptide)
chain: APG
B10: GlyProGln (peptide)
chain: GPQ
B11: LeuProGly (peptide)
chain: LPG

Molecular target: DPP-4 (UniProt P27487)
Sequence (P27487 29-766): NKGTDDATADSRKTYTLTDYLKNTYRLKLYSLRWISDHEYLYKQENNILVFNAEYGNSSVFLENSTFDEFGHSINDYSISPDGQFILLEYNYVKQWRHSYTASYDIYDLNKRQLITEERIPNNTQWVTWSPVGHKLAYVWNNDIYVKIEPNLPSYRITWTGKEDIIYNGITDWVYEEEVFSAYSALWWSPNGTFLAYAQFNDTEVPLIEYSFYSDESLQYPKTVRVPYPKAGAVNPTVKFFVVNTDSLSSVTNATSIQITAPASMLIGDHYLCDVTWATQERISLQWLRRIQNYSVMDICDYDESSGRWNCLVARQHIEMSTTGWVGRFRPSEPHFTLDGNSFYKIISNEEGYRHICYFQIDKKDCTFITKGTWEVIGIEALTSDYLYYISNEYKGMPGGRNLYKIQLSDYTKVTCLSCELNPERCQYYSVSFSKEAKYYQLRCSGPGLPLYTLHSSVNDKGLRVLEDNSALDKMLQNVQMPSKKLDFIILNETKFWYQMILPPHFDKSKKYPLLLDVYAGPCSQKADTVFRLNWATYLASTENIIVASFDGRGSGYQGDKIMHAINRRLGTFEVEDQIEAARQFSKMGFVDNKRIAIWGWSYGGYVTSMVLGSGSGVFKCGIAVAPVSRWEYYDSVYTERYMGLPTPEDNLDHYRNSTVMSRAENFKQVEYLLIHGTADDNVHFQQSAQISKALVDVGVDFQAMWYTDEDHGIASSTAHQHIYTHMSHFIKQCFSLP
Assay: other, DPP-4 inhibition

Binder | IC50 [µg/mL]
B1 | 5
B2 | 150
B3 | 2450
B4 | 142
B5 | 100
B6 | 39
B7 | 390
B8 | 71
B9 | 8
B10 | 93
B11 | 14
